The stoichiometry N is a count of units in the complex or per binding partner.

The target in this assay is CM1021 (human) (UniProt P02768). The experiment in a line: SDS-PAGE without and with reduction.

CM1021, sequence (P14210 whole entry, looked up, the tested form may be a part): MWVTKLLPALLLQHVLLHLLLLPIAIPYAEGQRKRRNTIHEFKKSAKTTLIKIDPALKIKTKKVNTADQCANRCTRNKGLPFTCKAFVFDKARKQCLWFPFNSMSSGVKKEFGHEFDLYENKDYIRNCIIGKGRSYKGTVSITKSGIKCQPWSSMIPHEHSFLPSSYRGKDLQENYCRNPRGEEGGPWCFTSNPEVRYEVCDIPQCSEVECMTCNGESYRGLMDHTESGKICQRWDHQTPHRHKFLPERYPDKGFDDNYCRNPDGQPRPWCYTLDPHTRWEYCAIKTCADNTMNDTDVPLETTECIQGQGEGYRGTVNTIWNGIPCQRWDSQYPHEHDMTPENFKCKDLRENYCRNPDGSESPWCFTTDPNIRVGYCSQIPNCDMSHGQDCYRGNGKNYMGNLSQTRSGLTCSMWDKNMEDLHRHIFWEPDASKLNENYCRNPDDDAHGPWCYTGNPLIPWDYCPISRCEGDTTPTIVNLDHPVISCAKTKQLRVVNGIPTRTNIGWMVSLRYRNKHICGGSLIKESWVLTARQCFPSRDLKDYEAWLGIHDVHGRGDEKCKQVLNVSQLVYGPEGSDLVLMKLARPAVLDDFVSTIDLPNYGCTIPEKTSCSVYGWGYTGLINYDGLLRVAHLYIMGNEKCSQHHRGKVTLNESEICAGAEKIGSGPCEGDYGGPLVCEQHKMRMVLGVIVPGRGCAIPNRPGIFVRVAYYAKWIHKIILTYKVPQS
CM1021, sequence (P02768 whole entry, looked up, the tested form may be a part): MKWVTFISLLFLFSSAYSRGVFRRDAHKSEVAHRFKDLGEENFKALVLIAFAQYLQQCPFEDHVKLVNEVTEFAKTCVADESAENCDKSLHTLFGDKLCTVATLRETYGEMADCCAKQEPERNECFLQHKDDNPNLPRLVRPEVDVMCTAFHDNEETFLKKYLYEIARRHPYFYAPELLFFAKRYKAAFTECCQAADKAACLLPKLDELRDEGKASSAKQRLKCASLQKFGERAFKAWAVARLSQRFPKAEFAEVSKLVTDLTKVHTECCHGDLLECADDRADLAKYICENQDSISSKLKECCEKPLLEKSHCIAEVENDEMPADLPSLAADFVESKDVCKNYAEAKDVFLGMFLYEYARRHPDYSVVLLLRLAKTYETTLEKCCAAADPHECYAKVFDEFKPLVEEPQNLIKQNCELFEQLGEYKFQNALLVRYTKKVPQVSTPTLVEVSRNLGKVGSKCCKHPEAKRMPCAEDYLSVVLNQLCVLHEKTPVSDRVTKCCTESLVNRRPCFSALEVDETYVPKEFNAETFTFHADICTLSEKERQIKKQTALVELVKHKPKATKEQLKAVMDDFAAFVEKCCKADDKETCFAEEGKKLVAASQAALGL

In the case of “CM1021 (from UniProt P02768 1-18; P14210 124-210) (Fc fusion)”, the stoichiometry N was found to be 2.

For the origin of these results see PMC8683692.
